Laboratory results: PMC9584410, “Structure of Klebsiella pneumoniae adenosine monophosphate nucleosidase” (PLoS ONE, 2022)

Assays:
[1] = target: Klebsiella pneumoniae adenosine monophosphate nucleosidase (Klebsiella pneumoniae); assay: cryo-EM structure; purified KpAmn vitrified on a C-flat grid (Vitrobot, 4°C, >90% humidity), Titan Krios 300 kV; apo; D3 symmetry confirmed by ab initio models and enforced in refinement
purified protein = substrate: Nc1ncnc2c1ncn2[C@@H]1O[C@H](COP(=O)(O)O)[C@@H](O)[C@H]1O; assay: purified protein; assay type: biochemical, Klebsiella pneumoniae; details: 25 °C, 20 mM HEPES pH 7.5, 100 mM NaCl, 1 mM MnCl2, no ATP activator listed

Row | stoichiometry N [1] | Molecule | Km (purified protein) [µM]
1 | 6 | Klebsiella pneumoniae adenosine monophosphate nucleosidase (enzyme) | –
2 | – | KpAmn (K. pneumoniae adenosine monophosphate nucleosidase) (Klebsiella pneumoniae) (protein, expressed in E. coli BL21(DE3) R3 Rosetta; homohexamer, D3 symmetry; active site from two chains) MNIKAASLTPEQALAELEARYEASVTALRKAIGDYIDHNTLPDTEARAEGLFVYPQLSVSWDGADHKALKTRAWGRFTHAGCYTTTITNPKLFRNYLLEQLTLLYQDYGAHISVELSQHEIPYPYVIDGSTLTLDRSMSAGLTRYFPTTELSQIGDETADGLFHPTEFYPLSHFDARRVDFSLARLRHYTGTPAEHFQPYVLFTNYTRYVDEFVSWGCSQILDPDSPYIALSCAGGIWITAETEAPEQAISDLAWKKHQMPAWHLITHDGKGITLINIGVGPANAKTICDHLAVLRPDVWLMIGHCGGLRESQAIGDYVLAHAYLRDDHVLDAVLPPDIPIPSIAEVQRALYDATKQVSGMPGEEVKQRLRTGTVVTTDDRNWELRYSASALRFNLSRAVAIDMESATIAAQGYRFRVPYGTLLCVSDKPLHGEIKLPGQANRFYEGAISEHLQIGIRAIDLLRAEGDHMHSRKLRTFNEPPFR | 390
